This data set deals with West Nile virus envelope protein domain III (WNDIII, WNE-rDIII) (West Nile virus strain Wengler, UniProt P06935 P06935:582-692). In words: ELONA; unmodified DNA unable to bind. The settings on record: tags: 6xHis; with or without biotin acceptor peptide (BAP); label: 5' biotin.
Sequence of West Nile virus envelope protein domain III (WNDIII, WNE-rDIII) (P06935 582-692, one chain of several): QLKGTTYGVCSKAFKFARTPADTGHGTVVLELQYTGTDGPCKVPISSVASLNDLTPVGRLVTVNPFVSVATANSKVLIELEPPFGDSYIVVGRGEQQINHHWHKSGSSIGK

B1: BN-B99-DNA unmodified (ssDNA)
DNA: GAAGGTGAAGGTCGGCTGAAGCATCAGACCTAAGCCCAAATTGCCGCAGACTCGTTGTGAAGCTTAGGTCTAATGCACCATCATCACCATCTTC
As for B1, the binding result is “no binding”.

B2: BN-B03-DNA unmodified (ssDNA)
DNA: GAAGGTGAAGGTCGGCTGAAGCATTAGACCTAAGCACGCTGCCACAAGTCCTGGTTCCCTGGCTTAGGTCTAATGCACCATCATCACCATCTTC
For the molecule B2, the binding result is “no binding”.
